These results are taken from article PMC8376927, “14-3-3 proteins inactivate DAPK2 by promoting its dimerization and protecting key regulatory phosphosites” (Communications Biology, 2021).

The chains are these.
B1: DAPK2_RNTD, full-length human DAPK2 mutant with the C terminus S367STS370 changed to R367NTD370, autophosphorylated (enzyme)
chain: MFQASMRSPNMEPFKQQKVEDFYDIGEELGSGQFAIVKKCREKSTGLEYAAKFIKKRQSRASRRGVSREEIEREVSILRQVLHHNVITLHDVYENRTDVVLILELVSGGELFDFLAQKESLSEEEATSFIKQILDGVNYLHTKKIAHFDLKPENIMLLDKNIPIPHIKLIDFGLAHEIEDGVEFKNIFGTPEFVAPEIVNYEPLGLEADMWSIGVITYILLSGASPFLGDTKQETLANITAVSYDFDEEFFSQTSELAKDFIRKLLVKETRKRLTIQEALRHPWITPVDNQQAMVRRESVVNLENFRKQYVRRRWKLSFSIVSLCNHLTRSLMKKVHLRPDEDLRNCESDTEEDIARRKALHPRRRRNTD
modifications: phosphothreonine at 369 (stoichiometrically autophosphorylated); autophosphorylated Ser318 (the peptide with Ser318 carried one or two phosphoresidues)
notes: Death-associated protein kinase 2 (DAPK2, DRP-1), human, full length; Cloned into modified pRSFDuet-1 (BamHI, NotI)
B4: Human 14-3-3γΔC (residues 1-235 lacking the C-terminal 13-residue-long flexible tail) (domain or fragment, UniProt P61981 1-235, looked up)
chain: MVDREQLVQKARLAEQAERYDDMAAAMKNVTELNEPLSNEERNLLSVAYKNVVGARRSSWRVISSIEQKTSADGNEKKIEMVRAYREKIEKELEAVCQDVLSLLDNYLIKNCSETQYESKVFYLKMKGDYYRYLAEVATGEKRATVVESSEKAYSEAHEISKEHMQPTHPIRLGLALNYSVFYYEIQNAPEQACHLAKTAFDDAIAELDTLNEDSYKDSTLIMQLLRDNLTLWTS
notes: 14-3-3 protein gamma, human, residues 1-235 (C-terminally truncated)

In data set [1] the target is T1, rat calmodulin protein (Ca2+/CaM) (rat, UniProt P0DP29 1-149).
T1 construct: calmodulin, rat; also called rat CaM
Put plainly: AUC; sedimentation velocity, 50 μM mixture of DAPK2_RNTD with Ca2+/CaM (1:1 molar ratio) compared with 50 μM DAPK2_RNTD alone; 20 °C. As to conditions: both partners purified.

The target of data set [2] is T2, dansyl-labeled rat calmodulin (DANS-CaM) (rat, UniProt P0DP29 1-149, dansyl label (dansyl chloride; site not stated)).
T2 construct: calmodulin, rat; Measured with 1 mM CaCl2; also called DANS-Ca^2+/CaM; dansyl-Ca^2+/CaM
Nature of the data set: time-resolved fluorescence intensity and anisotropy decay; 25 μM DANS-CaM, 30 μM DAPK2, with or without 100 μM 14-3-3γ; 23 °C; 20 mM HEPES-NaOH pH 7.5, 150 mM NaCl, 1 mM CaCl2, 1 mM TCEP. The conditions noted are these: both partners purified.

Data set [3] concerns the molecule itself. Nature of the data set: crystal structure; binary complex 14-3-3γΔC:ctDAPK2-pT369 mixed 1:1.2; hanging drop, 290 K; space group R3; 2.7 Å.
In data set [4] the target is B4. Nature of the data set: fluorescence polarisation; 14-3-3γ (160 µM and binary dilution series) incubated 1 h with 50 nM FAM-labelled peptide; 20 mM HEPES-NaOH pH 7.4, 150 mM NaCl, 0.1% Tween 20, 0.1% BSA; one-site-binding model; apparent KD. As to conditions: both partners purified. A general note: Fluorescence polarisation rises when a labelled molecule tumbles more slowly, as on binding a larger partner.

For data set [5], the target named is B1. Nature of the data set: AUC; sedimentation velocity, 10-molar excess of 14-3-3γ over DAPK2_RNTD; 20 °C. The conditions noted are these: both partners purified.
Data set [6] concerns the target B1. Nature of the data set: AUC; sedimentation velocity, 10-molar excess of DAPK2_RNTD over 14-3-3γ; 20 °C. As to conditions: both partners purified.
For data set [7], the target named is B1. Nature of the data set: AUC; sedimentation velocity, mixtures of 6 μM DAPK2_RNTD and 0.6-60 μM 14-3-3γ; 20 °C; 50 mM HEPES-NaOH pH 7.5, 150 mM NaCl, 1 mM TCEP. As to conditions: both partners purified.

Non-standard residues stand in square brackets, D forms with d. No end group written: not given here. *: point of attachment. 5FAM = O=C1OC2(c3ccc(O)cc3Oc3cc(O)ccc32)c2ccc(C(=O)*)cc21; pT = C[C@@H](OP(=O)(O)O)[C@H](N)C(=O)O

B1: the binding result in data set [1] and in data set [2] was “binds” in each case.

B2: DAPK2_RNTD S318A (enzyme)
chain: MFQASMRSPNMEPFKQQKVEDFYDIGEELGSGQFAIVKKCREKSTGLEYAAKFIKKRQSRASRRGVSREEIEREVSILRQVLHHNVITLHDVYENRTDVVLILELVSGGELFDFLAQKESLSEEEATSFIKQILDGVNYLHTKKIAHFDLKPENIMLLDKNIPIPHIKLIDFGLAHEIEDGVEFKNIFGTPEFVAPEIVNYEPLGLEADMWSIGVITYILLSGASPFLGDTKQETLANITAVSYDFDEEFFSQTSELAKDFIRKLLVKETRKRLTIQEALRHPWITPVDNQQAMVRRESVVNLENFRKQYVRRRWKLAFSIVSLCNHLTRSLMKKVHLRPDEDLRNCESDTEEDIARRKALHPRRRRNTD
notes: Death-associated protein kinase 2 (DAPK2), human, full length, made from DAPK2_RNTD
Regarding B2, in data set [2], the binding result is recorded as “binds”.

B3: DAPK2 WT, full-length human DAPK2, autophosphorylated (enzyme)
chain: MFQASMRSPNMEPFKQQKVEDFYDIGEELGSGQFAIVKKCREKSTGLEYAAKFIKKRQSRASRRGVSREEIEREVSILRQVLHHNVITLHDVYENRTDVVLILELVSGGELFDFLAQKESLSEEEATSFIKQILDGVNYLHTKKIAHFDLKPENIMLLDKNIPIPHIKLIDFGLAHEIEDGVEFKNIFGTPEFVAPEIVNYEPLGLEADMWSIGVITYILLSGASPFLGDTKQETLANITAVSYDFDEEFFSQTSELAKDFIRKLLVKETRKRLTIQEALRHPWITPVDNQQAMVRRESVVNLENFRKQYVRRRWKLSFSIVSLCNHLTRSLMKKVHLRPDEDLRNCESDTEEDIARRKALHPRRRSSTS
modifications: autophosphorylated at Ser318 and at two additional sites, at least, within the C-terminal 14-3-3-binding motif
notes: Death-associated protein kinase 2 (DAPK2, DRP-1), human, full length
For B3, the binding result in data set [2] was “binds”.
Consider B4, for which the binding result in data set [3] was “binds”.

B5: FAM-ctDAPK2-pT369 peptide (FAM-RRRSSpTS) (peptide)
peptide: 5FAM-RRRSS[pT]S
notes: source: synthetic peptide (Pepscan Presto BV)
As to B5, the Kd in data set [4] amounted to 161 ± 7 nM.

B6: Human 14-3-3γ WT (natural protein, UniProt P61981 1-247, looked up)
chain: MVDREQLVQKARLAEQAERYDDMAAAMKNVTELNEPLSNEERNLLSVAYKNVVGARRSSWRVISSIEQKTSADGNEKKIEMVRAYREKIEKELEAVCQDVLSLLDNYLIKNCSETQYESKVFYLKMKGDYYRYLAEVATGEKRATVVESSEKAYSEAHEISKEHMQPTHPIRLGLALNYSVFYYEIQNAPEQACHLAKTAFDDAIAELDTLNEDSYKDSTLIMQLLRDNLTLWTSDQQDDDGGEGNN
notes: 14-3-3 protein gamma, human, wild type; it speaks of the protein as a dimer
On to B6, for which the “stoichiometry N” value in data set [5] is 2 14-3-3γ per DAPK2 (printed 2:1); in data set [6], 1 14-3-3γ per DAPK2 (printed 2:2). The Kd in data set [7] is less than 100 nM.
